Data as given in patent US20210388110A1 (published 2021).

Biological target: T1, soluble human CD3ε chain (human, UniProt P07766 23-126, limits assumed)
T1 construct: also called human CD3 epsilon chain
Assay: SPR (Biacore), soluble human CD3ε chain

T1 sequence (P07766 23-126 limits assumed): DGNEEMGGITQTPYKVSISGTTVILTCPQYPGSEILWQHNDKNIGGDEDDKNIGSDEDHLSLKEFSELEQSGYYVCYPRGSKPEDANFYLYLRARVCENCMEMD

Binder	Kd [nM]
TR01H082-E22Hh/none-Hi-Kn010G3/L0222-k0 (antibody, human IgG1, kappa, L234A L235A, N297A, one-arm antibody (single Fab) with Fab-less hinge-Fc chain Hi-Kn010G3) heavy: QVQLVESGGGLVQPGRSLRLSCAASGFTFSNAWMHWVRQAPGKGLEWVAQIKDKSQNYATYYAESVKGRFTISRDDSKNSLYLQMNSLKTEDTAVYYCRYVHYAAGYGVDAWGQGTTVTVSSASTKGPSVFPLAPSSKSTSGGTAALGCLVKDYFPEPVTVSWNSGALTSGVHTFPAVLQSSGLYSLSSVVTVPSSSLGTQTYICNVNHKPSNTKVDKKVEPKSCDKTHTCPPCPAPEAAGGPSVFLFPPKPKDTLMISRTPEVTCVVVDVSHEDPEVKFNWYVDGVEVHNAKTKPREEQYASTYRVVSVLTVLHQDWLNGKEYKCKVSNKALPAPIEKTISKAKGQPREPQVYTLPPSRCELTKNQVSLSCAVKGFYPSDIAVEWESNGQPENNYKTTPPVLDSDGSFFLVSKLTVDKSRWQQGNVFSCSVMHEALHNHYTQKSLSLSPDYKDDDDK EPKSSDKTHTCPPCPAPELLGGPSVFLFPPKPKDTLMISRTPEVTCVVVDVSHEDPEVKFNWYVDGVEVHNAKTKPREEQYNSTYRVVSVLTVLHQDWLNGKEYKCKVSNKALPAPIEKTISKAKGQPREPQVCTLPPSRDELTKNQVSLWCLVKGFYPSDIAVEWESNGQPENNYKTTPPVLDSDGSFFLYSKLTVDKSRWQQGNVFSCSVMHEALHNRYTQKSLSLSP light: DIVMTQSPLSLPVTPGEPASISCRSSQSPVHSNRNTYIQWYQQKPGQAPRLLIYKVSNRFSGVPDRFSGSGSGTDFTLKISRVEAEDVGVYYCYQGTQVPYTFGQGTKLEIKRTVAAPSVFIFPPSDEQLKSGTASVVCLLNNFYPREAKVQWKVDNALQSGNSQESVTEQDSKDSTYSLSSTLTLSKADYEKHKVYACEVTHQGLSSPVTKSFNRGEC	101
TR01H082-E22Hh/none-Hi-Kn010G3/L0271-k0 (antibody, human IgG1, kappa, L234A L235A, N297A, one-arm antibody (single Fab) with Fab-less hinge-Fc chain Hi-Kn010G3) heavy: QVQLVESGGGLVQPGRSLRLSCAASGFTFSNAWMHWVRQAPGKGLEWVAQIKDKSQNYATYYAESVKGRFTISRDDSKNSLYLQMNSLKTEDTAVYYCRYVHYAAGYGVDAWGQGTTVTVSSASTKGPSVFPLAPSSKSTSGGTAALGCLVKDYFPEPVTVSWNSGALTSGVHTFPAVLQSSGLYSLSSVVTVPSSSLGTQTYICNVNHKPSNTKVDKKVEPKSCDKTHTCPPCPAPEAAGGPSVFLFPPKPKDTLMISRTPEVTCVVVDVSHEDPEVKFNWYVDGVEVHNAKTKPREEQYASTYRVVSVLTVLHQDWLNGKEYKCKVSNKALPAPIEKTISKAKGQPREPQVYTLPPSRCELTKNQVSLSCAVKGFYPSDIAVEWESNGQPENNYKTTPPVLDSDGSFFLVSKLTVDKSRWQQGNVFSCSVMHEALHNHYTQKSLSLSPDYKDDDDK EPKSSDKTHTCPPCPAPELLGGPSVFLFPPKPKDTLMISRTPEVTCVVVDVSHEDPEVKFNWYVDGVEVHNAKTKPREEQYNSTYRVVSVLTVLHQDWLNGKEYKCKVSNKALPAPIEKTISKAKGQPREPQVCTLPPSRDELTKNQVSLWCLVKGFYPSDIAVEWESNGQPENNYKTTPPVLDSDGSFFLYSKLTVDKSRWQQGNVFSCSVMHEALHNRYTQKSLSLSP light: DIVMTQSPLSLPVTPGEPASISCRSSQPPVHSNRQTYLHWYQQKPGQAPRLLIYKVSNRFSGVPDRFSGSGSGTDFTLKISRVEAEDVGVYYCGQGTQVPYTFGQGTKLEIKRTVAAPSVFIFPPSDEQLKSGTASVVCLLNNFYPREAKVQWKVDNALQSGNSQESVTEQDSKDSTYSLSSTLTLSKADYEKHKVYACEVTHQGLSSPVTKSFNRGEC	68.2
TR01H082-E22Hh/none-Hi-Kn010G3/L0272-k0 (antibody, human IgG1, kappa, L234A L235A, N297A, one-arm antibody (single Fab) with Fab-less hinge-Fc chain Hi-Kn010G3) heavy: QVQLVESGGGLVQPGRSLRLSCAASGFTFSNAWMHWVRQAPGKGLEWVAQIKDKSQNYATYYAESVKGRFTISRDDSKNSLYLQMNSLKTEDTAVYYCRYVHYAAGYGVDAWGQGTTVTVSSASTKGPSVFPLAPSSKSTSGGTAALGCLVKDYFPEPVTVSWNSGALTSGVHTFPAVLQSSGLYSLSSVVTVPSSSLGTQTYICNVNHKPSNTKVDKKVEPKSCDKTHTCPPCPAPEAAGGPSVFLFPPKPKDTLMISRTPEVTCVVVDVSHEDPEVKFNWYVDGVEVHNAKTKPREEQYASTYRVVSVLTVLHQDWLNGKEYKCKVSNKALPAPIEKTISKAKGQPREPQVYTLPPSRCELTKNQVSLSCAVKGFYPSDIAVEWESNGQPENNYKTTPPVLDSDGSFFLVSKLTVDKSRWQQGNVFSCSVMHEALHNHYTQKSLSLSPDYKDDDDK EPKSSDKTHTCPPCPAPELLGGPSVFLFPPKPKDTLMISRTPEVTCVVVDVSHEDPEVKFNWYVDGVEVHNAKTKPREEQYNSTYRVVSVLTVLHQDWLNGKEYKCKVSNKALPAPIEKTISKAKGQPREPQVCTLPPSRDELTKNQVSLWCLVKGFYPSDIAVEWESNGQPENNYKTTPPVLDSDGSFFLYSKLTVDKSRWQQGNVFSCSVMHEALHNRYTQKSLSLSP light: DIVMTQSPLSLPVTPGEPASISCRSSQPLVHSNRQTYLHWYQQKPGQAPRLLIYKVSNRFSGVPDRFSGSGSGTDFTLKISRVEAEDVGVYYCGQGTQVPYTFGQGTKLEIKRTVAAPSVFIFPPSDEQLKSGTASVVCLLNNFYPREAKVQWKVDNALQSGNSQESVTEQDSKDSTYSLSSTLTLSKADYEKHKVYACEVTHQGLSSPVTKSFNRGEC	74.4
TR01H082-E22Hh/none-Hi-Kn010G3/TR01L017-k0 (antibody, human IgG1, kappa, L234A L235A, N297A, one-arm antibody (single Fab) with Fab-less hinge-Fc chain Hi-Kn010G3) heavy: QVQLVESGGGLVQPGRSLRLSCAASGFTFSNAWMHWVRQAPGKGLEWVAQIKDKSQNYATYYAESVKGRFTISRDDSKNSLYLQMNSLKTEDTAVYYCRYVHYAAGYGVDAWGQGTTVTVSSASTKGPSVFPLAPSSKSTSGGTAALGCLVKDYFPEPVTVSWNSGALTSGVHTFPAVLQSSGLYSLSSVVTVPSSSLGTQTYICNVNHKPSNTKVDKKVEPKSCDKTHTCPPCPAPEAAGGPSVFLFPPKPKDTLMISRTPEVTCVVVDVSHEDPEVKFNWYVDGVEVHNAKTKPREEQYASTYRVVSVLTVLHQDWLNGKEYKCKVSNKALPAPIEKTISKAKGQPREPQVYTLPPSRCELTKNQVSLSCAVKGFYPSDIAVEWESNGQPENNYKTTPPVLDSDGSFFLVSKLTVDKSRWQQGNVFSCSVMHEALHNHYTQKSLSLSPDYKDDDDK EPKSSDKTHTCPPCPAPELLGGPSVFLFPPKPKDTLMISRTPEVTCVVVDVSHEDPEVKFNWYVDGVEVHNAKTKPREEQYNSTYRVVSVLTVLHQDWLNGKEYKCKVSNKALPAPIEKTISKAKGQPREPQVCTLPPSRDELTKNQVSLWCLVKGFYPSDIAVEWESNGQPENNYKTTPPVLDSDGSFFLYSKLTVDKSRWQQGNVFSCSVMHEALHNRYTQKSLSLSP light: DIVMTQSPLSLPVTPGEPASISCRSSQSPVHSNRNTYIQWYLQKPGQSPQLLIYKVSNRFSGVPDRFSGSGSGTDFTLKISRVEAEDVGVYYCYQGTQVPYTFGQGTKLEIKRTVAAPSVFIFPPSDEQLKSGTASVVCLLNNFYPREAKVQWKVDNALQSGNSQESVTEQDSKDSTYSLSSTLTLSKADYEKHKVYACEVTHQGLSSPVTKSFNRGEC	109
TR01H082-E22Hh/none-Hi-Kn010G3/L0268-k0 (antibody, human IgG1, kappa, L234A L235A, N297A, one-arm antibody (single Fab) with Fab-less hinge-Fc chain Hi-Kn010G3) heavy: QVQLVESGGGLVQPGRSLRLSCAASGFTFSNAWMHWVRQAPGKGLEWVAQIKDKSQNYATYYAESVKGRFTISRDDSKNSLYLQMNSLKTEDTAVYYCRYVHYAAGYGVDAWGQGTTVTVSSASTKGPSVFPLAPSSKSTSGGTAALGCLVKDYFPEPVTVSWNSGALTSGVHTFPAVLQSSGLYSLSSVVTVPSSSLGTQTYICNVNHKPSNTKVDKKVEPKSCDKTHTCPPCPAPEAAGGPSVFLFPPKPKDTLMISRTPEVTCVVVDVSHEDPEVKFNWYVDGVEVHNAKTKPREEQYASTYRVVSVLTVLHQDWLNGKEYKCKVSNKALPAPIEKTISKAKGQPREPQVYTLPPSRCELTKNQVSLSCAVKGFYPSDIAVEWESNGQPENNYKTTPPVLDSDGSFFLVSKLTVDKSRWQQGNVFSCSVMHEALHNHYTQKSLSLSPDYKDDDDK EPKSSDKTHTCPPCPAPELLGGPSVFLFPPKPKDTLMISRTPEVTCVVVDVSHEDPEVKFNWYVDGVEVHNAKTKPREEQYNSTYRVVSVLTVLHQDWLNGKEYKCKVSNKALPAPIEKTISKAKGQPREPQVCTLPPSRDELTKNQVSLWCLVKGFYPSDIAVEWESNGQPENNYKTTPPVLDSDGSFFLYSKLTVDKSRWQQGNVFSCSVMHEALHNRYTQKSLSLSP light: DIVMTQSPLSLPVTPGEPASISCRSSQSPVHSNRNTYIQWYQQKPGQAPRLLIYKVSNRFSGVPDRFSGSGSGTDFTLKISRVEAEDVGVYYCVQGTQVPYTFGQGTKLEIKRTVAAPSVFIFPPSDEQLKSGTASVVCLLNNFYPREAKVQWKVDNALQSGNSQESVTEQDSKDSTYSLSSTLTLSKADYEKHKVYACEVTHQGLSSPVTKSFNRGEC	136
TR01H082-E22Hh/none-Hi-Kn010G3/L0270-k0 (antibody, human IgG1, kappa, L234A L235A, N297A, one-arm antibody (single Fab) with Fab-less hinge-Fc chain Hi-Kn010G3) heavy: QVQLVESGGGLVQPGRSLRLSCAASGFTFSNAWMHWVRQAPGKGLEWVAQIKDKSQNYATYYAESVKGRFTISRDDSKNSLYLQMNSLKTEDTAVYYCRYVHYAAGYGVDAWGQGTTVTVSSASTKGPSVFPLAPSSKSTSGGTAALGCLVKDYFPEPVTVSWNSGALTSGVHTFPAVLQSSGLYSLSSVVTVPSSSLGTQTYICNVNHKPSNTKVDKKVEPKSCDKTHTCPPCPAPEAAGGPSVFLFPPKPKDTLMISRTPEVTCVVVDVSHEDPEVKFNWYVDGVEVHNAKTKPREEQYASTYRVVSVLTVLHQDWLNGKEYKCKVSNKALPAPIEKTISKAKGQPREPQVYTLPPSRCELTKNQVSLSCAVKGFYPSDIAVEWESNGQPENNYKTTPPVLDSDGSFFLVSKLTVDKSRWQQGNVFSCSVMHEALHNHYTQKSLSLSPDYKDDDDK EPKSSDKTHTCPPCPAPELLGGPSVFLFPPKPKDTLMISRTPEVTCVVVDVSHEDPEVKFNWYVDGVEVHNAKTKPREEQYNSTYRVVSVLTVLHQDWLNGKEYKCKVSNKALPAPIEKTISKAKGQPREPQVCTLPPSRDELTKNQVSLWCLVKGFYPSDIAVEWESNGQPENNYKTTPPVLDSDGSFFLYSKLTVDKSRWQQGNVFSCSVMHEALHNRYTQKSLSLSP light: DIVMTQSPLSLPVTPGEPASISCRSSQSLVHSNRQTYLHWYQQKPGQAPRLLIYKVSNRFSGVPDRFSGSGSGTDFTLKISRVEAEDVGVYYCGQGTQVPYTFGQGTKLEIKRTVAAPSVFIFPPSDEQLKSGTASVVCLLNNFYPREAKVQWKVDNALQSGNSQESVTEQDSKDSTYSLSSTLTLSKADYEKHKVYACEVTHQGLSSPVTKSFNRGEC	74.2
